The chains are these.
T1: EsCas13d, nuclease-dead (Eubacterium siraeum, UniProt B0MS50, R295A;H300A;R849A;H854A)
T1 sequence: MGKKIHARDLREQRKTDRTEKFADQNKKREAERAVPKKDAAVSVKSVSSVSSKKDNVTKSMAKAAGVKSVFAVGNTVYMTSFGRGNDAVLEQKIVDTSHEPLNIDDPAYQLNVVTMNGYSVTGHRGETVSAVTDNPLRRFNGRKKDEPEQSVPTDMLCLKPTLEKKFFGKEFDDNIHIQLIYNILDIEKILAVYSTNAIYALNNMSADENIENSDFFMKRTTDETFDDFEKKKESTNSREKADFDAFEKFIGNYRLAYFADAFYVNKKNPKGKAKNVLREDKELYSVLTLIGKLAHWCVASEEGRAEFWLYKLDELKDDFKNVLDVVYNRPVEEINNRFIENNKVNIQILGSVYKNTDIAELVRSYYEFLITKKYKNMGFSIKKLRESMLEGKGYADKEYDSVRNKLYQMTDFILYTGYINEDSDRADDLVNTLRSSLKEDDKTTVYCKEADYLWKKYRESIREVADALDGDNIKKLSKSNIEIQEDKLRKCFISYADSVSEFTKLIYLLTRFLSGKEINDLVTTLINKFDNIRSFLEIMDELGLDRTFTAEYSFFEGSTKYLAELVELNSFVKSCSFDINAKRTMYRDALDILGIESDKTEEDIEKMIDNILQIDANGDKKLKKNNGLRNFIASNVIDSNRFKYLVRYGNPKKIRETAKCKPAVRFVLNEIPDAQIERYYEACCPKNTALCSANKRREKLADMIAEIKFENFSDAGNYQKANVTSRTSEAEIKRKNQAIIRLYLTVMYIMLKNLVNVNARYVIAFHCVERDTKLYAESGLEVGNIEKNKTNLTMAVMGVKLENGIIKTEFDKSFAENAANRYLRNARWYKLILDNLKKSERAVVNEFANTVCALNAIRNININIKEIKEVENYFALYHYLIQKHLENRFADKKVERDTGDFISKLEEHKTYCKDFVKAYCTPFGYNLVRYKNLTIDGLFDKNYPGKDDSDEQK

B1: target 1 U10G,A16U (mixed)
RNA 1: CACCCGUGCAAAAAUGCAGGGGUCUAAAACUGAGCGGAUAACCUCUCUAUGG
RNA 2: GGGAAUGGAUCCACAUCUACGAAUUCGUACCAUAGUGAGGUGAUCCGCUCACCGAGAUCGGAAGAGCACACGU
B2: target 1 MT 5'PFS GUA 3'PFS GAA (mixed)
RNA 1: CACCCGUGCAAAAAUGCAGGGGUCUAAAACUGAGCGGAUAACCUCUCUAUGG
RNA 2: GGGAAUGGAUCCACAUCUACGAAUUCGUACCAUAGAGAGGUUAUCCGCUCAGAAAGAUCGGAAGAGCACACGU
B3: target 1 MT 5'PFS GUC 3'PFS AUC (mixed)
RNA 1: CACCCGUGCAAAAAUGCAGGGGUCUAAAACUGAGCGGAUAACCUCUCUAUGG
RNA 2: GGGAAUGGAUCCACAUCUACGAAUUCGUCCCAUAGAGAGGUUAUCCGCUCAAUCAGAUCGGAAGAGCACACGU
B4: target 1 MT 5'PFS GCA 3'PFS CAG (mixed)
RNA 1: CACCCGUGCAAAAAUGCAGGGGUCUAAAACUGAGCGGAUAACCUCUCUAUGG
RNA 2: GGGAAUGGAUCCACAUCUACGAAUUCGCACCAUAGAGAGGUUAUCCGCUCACAGAGAUCGGAAGAGCACACGU
B5: target 1 MT 5'PFS UAG 3'PFS AUG (mixed)
RNA 1: CACCCGUGCAAAAAUGCAGGGGUCUAAAACUGAGCGGAUAACCUCUCUAUGG
RNA 2: GGGAAUGGAUCCACAUCUACGAAUUCUAGCCAUAGAGAGGUUAUCCGCUCAAUGAGAUCGGAAGAGCACACGU
B6: target 1 MT 5'PFS CUA 3'PFS UAG (mixed)
RNA 1: CACCCGUGCAAAAAUGCAGGGGUCUAAAACUGAGCGGAUAACCUCUCUAUGG
RNA 2: GGGAAUGGAUCCACAUCUACGAAUUCCUACCAUAGAGAGGUUAUCCGCUCAUAGAGAUCGGAAGAGCACACGU
B7: target 1 MT 5'PFS UAG 3'PFS AUA (mixed)
RNA 1: CACCCGUGCAAAAAUGCAGGGGUCUAAAACUGAGCGGAUAACCUCUCUAUGG
RNA 2: GGGAAUGGAUCCACAUCUACGAAUUCUAGCCAUAGAGAGGUUAUCCGCUCAAUAAGAUCGGAAGAGCACACGU
B8: target 1 MT 5'PFS CAG 3'PFS ACC (mixed)
RNA 1: CACCCGUGCAAAAAUGCAGGGGUCUAAAACUGAGCGGAUAACCUCUCUAUGG
RNA 2: GGGAAUGGAUCCACAUCUACGAAUUCCAGCCAUAGAGAGGUUAUCCGCUCAACCAGAUCGGAAGAGCACACGU
B9: target 1 MT 5'PFS UAG 3'PFS AUU (mixed)
RNA 1: CACCCGUGCAAAAAUGCAGGGGUCUAAAACUGAGCGGAUAACCUCUCUAUGG
RNA 2: GGGAAUGGAUCCACAUCUACGAAUUCUAGCCAUAGAGAGGUUAUCCGCUCAAUUAGAUCGGAAGAGCACACGU
B10: target 1 MT 5'PFS CUA 3'PFS UAA (mixed)
RNA 1: CACCCGUGCAAAAAUGCAGGGGUCUAAAACUGAGCGGAUAACCUCUCUAUGG
RNA 2: GGGAAUGGAUCCACAUCUACGAAUUCCUACCAUAGAGAGGUUAUCCGCUCAUAAAGAUCGGAAGAGCACACGU
B11: target 1 MT 5'PFS UAG 3'PFS AUC (mixed)
RNA 1: CACCCGUGCAAAAAUGCAGGGGUCUAAAACUGAGCGGAUAACCUCUCUAUGG
RNA 2: GGGAAUGGAUCCACAUCUACGAAUUCUAGCCAUAGAGAGGUUAUCCGCUCAAUCAGAUCGGAAGAGCACACGU
B12: target 1 MT 5'PFS GGC 3'PFS CGA (mixed)
RNA 1: CACCCGUGCAAAAAUGCAGGGGUCUAAAACUGAGCGGAUAACCUCUCUAUGG
RNA 2: GGGAAUGGAUCCACAUCUACGAAUUCGGCCCAUAGAGAGGUUAUCCGCUCACGAAGAUCGGAAGAGCACACGU
B13: target 1 MT 5'PFS GUC 3'PFS AUA (mixed)
RNA 1: CACCCGUGCAAAAAUGCAGGGGUCUAAAACUGAGCGGAUAACCUCUCUAUGG
RNA 2: GGGAAUGGAUCCACAUCUACGAAUUCGUCCCAUAGAGAGGUUAUCCGCUCAAUAAGAUCGGAAGAGCACACGU
B14: target 1 MT 5'PFS GUA 3'PFS GAC (mixed)
RNA 1: CACCCGUGCAAAAAUGCAGGGGUCUAAAACUGAGCGGAUAACCUCUCUAUGG
RNA 2: GGGAAUGGAUCCACAUCUACGAAUUCGUACCAUAGAGAGGUUAUCCGCUCAGACAGAUCGGAAGAGCACACGU
B15: target 1 MT 5'PFS CUA 3'PFS UAC (mixed)
RNA 1: CACCCGUGCAAAAAUGCAGGGGUCUAAAACUGAGCGGAUAACCUCUCUAUGG
RNA 2: GGGAAUGGAUCCACAUCUACGAAUUCCUACCAUAGAGAGGUUAUCCGCUCAUACAGAUCGGAAGAGCACACGU
B16: target 1 MT 5'PFS CAG 3'PFS ACA (mixed)
RNA 1: CACCCGUGCAAAAAUGCAGGGGUCUAAAACUGAGCGGAUAACCUCUCUAUGG
RNA 2: GGGAAUGGAUCCACAUCUACGAAUUCCAGCCAUAGAGAGGUUAUCCGCUCAACAAGAUCGGAAGAGCACACGU
B17: target 1 MT 5'PFS GUC 3'PFS AUU (mixed)
RNA 1: CACCCGUGCAAAAAUGCAGGGGUCUAAAACUGAGCGGAUAACCUCUCUAUGG
RNA 2: GGGAAUGGAUCCACAUCUACGAAUUCGUCCCAUAGAGAGGUUAUCCGCUCAAUUAGAUCGGAAGAGCACACGU
B18: target 1 MT 5'PFS GUC 3'PFS AUG (mixed)
RNA 1: CACCCGUGCAAAAAUGCAGGGGUCUAAAACUGAGCGGAUAACCUCUCUAUGG
RNA 2: GGGAAUGGAUCCACAUCUACGAAUUCGUCCCAUAGAGAGGUUAUCCGCUCAAUGAGAUCGGAAGAGCACACGU
B19: target 1 MT 5'PFS GUA 3'PFS GAU (mixed)
RNA 1: CACCCGUGCAAAAAUGCAGGGGUCUAAAACUGAGCGGAUAACCUCUCUAUGG
RNA 2: GGGAAUGGAUCCACAUCUACGAAUUCGUACCAUAGAGAGGUUAUCCGCUCAGAUAGAUCGGAAGAGCACACGU
B20: target 1 MT 5'PFS GCA 3'PFS CAA (mixed)
RNA 1: CACCCGUGCAAAAAUGCAGGGGUCUAAAACUGAGCGGAUAACCUCUCUAUGG
RNA 2: GGGAAUGGAUCCACAUCUACGAAUUCGCACCAUAGAGAGGUUAUCCGCUCACAAAGAUCGGAAGAGCACACGU
B21: target 1 U8A,A9U (mixed)
RNA 1: CACCCGUGCAAAAAUGCAGGGGUCUAAAACUGAGCGGAUAACCUCUCUAUGG
RNA 2: GGGAAUGGAUCCACAUCUACGAAUUCGUACCAUAGAGAGGUUUACCGCUCACCGAGAUCGGAAGAGCACACGU
B22: target 1 MT 5'PFS UUU 3'PFS AGC (mixed)
RNA 1: CACCCGUGCAAAAAUGCAGGGGUCUAAAACUGAGCGGAUAACCUCUCUAUGG
RNA 2: GGGAAUGGAUCCACAUCUACGAAUUCUUUCCAUAGAGAGGUUAUCCGCUCAAGCAGAUCGGAAGAGCACACGU
B23: target 1 MT 5'PFS GUC 3'PFS UUC (mixed)
RNA 1: CACCCGUGCAAAAAUGCAGGGGUCUAAAACUGAGCGGAUAACCUCUCUAUGG
RNA 2: GGGAAUGGAUCCACAUCUACGAAUUCGUCCCAUAGAGAGGUUAUCCGCUCAUUCAGAUCGGAAGAGCACACGU
B24: target 1 MT 5'PFS GCA 3'PFS CAU (mixed)
RNA 1: CACCCGUGCAAAAAUGCAGGGGUCUAAAACUGAGCGGAUAACCUCUCUAUGG
RNA 2: GGGAAUGGAUCCACAUCUACGAAUUCGCACCAUAGAGAGGUUAUCCGCUCACAUAGAUCGGAAGAGCACACGU
B25: target 1 MT 5'PFS GUA 3'PFS GAG (mixed)
RNA 1: CACCCGUGCAAAAAUGCAGGGGUCUAAAACUGAGCGGAUAACCUCUCUAUGG
RNA 2: GGGAAUGGAUCCACAUCUACGAAUUCGUACCAUAGAGAGGUUAUCCGCUCAGAGAGAUCGGAAGAGCACACGU
B26: target 1 U3C,C4G (mixed)
RNA 1: CACCCGUGCAAAAAUGCAGGGGUCUAAAACUGAGCGGAUAACCUCUCUAUGG
RNA 2: GGGAAUGGAUCCACAUCUACGAAUUCGUACCAUAGAGAGGUUAUCCGGCCACCGAGAUCGGAAGAGCACACGU
B27: target 1 MT 5'PFS GUC 3'PFS UUG (mixed)
RNA 1: CACCCGUGCAAAAAUGCAGGGGUCUAAAACUGAGCGGAUAACCUCUCUAUGG
RNA 2: GGGAAUGGAUCCACAUCUACGAAUUCGUCCCAUAGAGAGGUUAUCCGCUCAUUGAGAUCGGAAGAGCACACGU

The target in the data set is T1, EsCas13d, nuclease-dead. Kind of data set: crRNA (strand 1, pre-loaded); Mg2+; 40 mM Tris-HCl pH 7.5, 150 mM NaCl, 6 mM MgCl2, 1 mM DTT, 0.1% Tween-20, 0.2 mg/ml BSA; 25 C; 10 min per concentration, then washed. Particulars: tags: His6-TwinStrep-SUMO cleaved; N-terminal SNAP kept (SNAP-Surface 488); label: 3' end held by stalled T7 RNA polymerase.
In general, Kd refers to the equilibrium constant for the complex coming apart. In turn, B1 yielded a Kd of 0.058 ± 0.01 µM.
The figure for B2 is 0.0118 ± 0.0013 µM; for B3 it is 0.0285 ± 0.011 µM.
Then B4, with approximately 0.0365 µM.
The figure for B5 is 0.0465 ± 0.009 µM; for B6 it is 0.0049 ± 0.0009 µM; for B7 it is 0.0313 ± 0.00495 µM.
The molecule B8 displayed a Kd of 0.024 ± 0.0115 µM.
As for B9, binding was put at a Kd of 0.0316 ± 0.0047 µM.
The figure for B10 is 0.006 ± 0.0013 µM; for B11 it is 0.032 ± 0.009 µM.
The figure for B12 is 0.022 ± 0.007 µM; for B13 it is 0.026 ± 0.007 µM; for B14 it is 0.0143 ± 0.00305 µM.
Then B15, with approximately 0.0039 µM.
Consider B16, for which the Kd is 0.031 ± 0.0155 µM.
Then B17, with 0.0161 ± 0.00215 µM; and B18, with 0.0245 ± 0.004 µM; and B19, with 0.0125 ± 0.00135 µM.
The figure for B20 is approximately 0.0325 µM.
Then B21, with 0.0129 ± 0.0008 µM.
B22 showed a Kd of 0.068 ± 0.0275 µM. This Kd is about 5.3-fold higher than that of the molecule before.
For B23, the Kd is 0.0191 ± 0.0045 µM.
Molecule B24 returned a Kd of 0.035 ± 0.011 µM.
The figure for B25 is 0.0161 ± 0.0023 µM.
The figure for B26 is 0.0114 ± 0.0006 µM; for B27 it is 0.0119 ± 0.00175 µM.

These data come from PMC10786891, “Massively parallel profiling of RNA-targeting CRISPR-Cas13d”.
